Laboratory results reported in the Immune Epitope Database (IEDB).
Blank lines part the entries; values can stand above or below the sequence they belong to.

Key:
HLA-A*11:01 [1] = experiment: IEDB peptide-MHC binding, purified MHC/competitive/fluorescence; ≥ and ≤ were set here for values at or beyond the usual limits of such assays; details: source organism: Variola virus
HLA-A*26:01 = experiment: IEDB peptide-MHC binding, purified MHC/direct/fluorescence; filed as Kd, often an IC50 or EC50 that approximates it; ≥ and ≤ were set here for values at or beyond the usual limits of such assays
HLA-B*46:01 = experiment: as above
HLA-B*40:01 = experiment: as above
HLA-B*58:01 = experiment: as above
HLA-A*69:01 [2] = experiment: as above
HLA-B*57:01 [3] = experiment: as above; details: source organism: Camelpox virus M-96
HLA-B*48:01 = experiment: as above
HLA-B*39:01 = experiment: as above; details: source organism: Camelpox virus M-96
HLA-B*08:02 = experiment: as above; details: source organism: Variola virus
HLA-A*02:01 = experiment: as above
HLA-A*68:02 = experiment: as above; details: source organism: Camelpox virus M-96
HLA-B*27:05 = experiment: as above
HLA-B*38:01 = experiment: as above
HLA-B*08:03 = experiment: as above; details: source organism: Variola virus
HLA-B*08:01 = experiment: as above
HLA-A*01:01 [4] = experiment: IEDB peptide-MHC binding, purified MHC/competitive/fluorescence; filed as Kd, often an IC50 or EC50 that approximates it; ≥ and ≤ were set here for values at or beyond the usual limits of such assays; details: source organism: Vaccinia virus WR
HLA-A*26:02 = experiment: as above; details: source organism: Vaccinia virus WR
HLA-B*18:01 [5] = experiment: as above; details: source organism: Vaccinia virus WR
HLA-B*35:01 = experiment: as above; details: source organism: Vaccinia virus WR
HLA-B*15:01 [6] = experiment: as above; details: source organism: Vaccinia virus WR
HLA-B*15:17 = experiment: as above
HLA-B*07:02 [7] = experiment: as above; details: source organism: Vaccinia virus WR
HLA-B*15:09 = experiment: IEDB peptide-MHC binding, purified MHC/direct/fluorescence; filed as Kd, often an IC50 or EC50 that approximates it; ≥ and ≤ were set here for values at or beyond the usual limits of such assays; details: source organism: Brucella suis ATCC 23445
HLA-A*03:01 [8] = experiment: as above
HLA-A*01:01 [9] = experiment: as above
HLA-A*31:01 [10] = experiment: as above
HLA-B*18:01 [11] = experiment: as above; details: source organism: Brucella abortus
HLA-B*15:01 [12] = experiment: as above
HLA-B*07:02 [13] = experiment: as above
HLA-A*11:01 [14] = experiment: as above
HLA-A*69:01 [15] = experiment: IEDB peptide-MHC binding, purified MHC/competitive/fluorescence; filed as Kd, often an IC50 or EC50 that approximates it; ≥ and ≤ were set here for values at or beyond the usual limits of such assays; details: source organism: Brucella melitensis bv. 1 str. Rev.1
HLA-B*57:01 [16] = experiment: as above; details: source organism: Brucella melitensis bv. 1 str. Rev.1
HLA-A*02:06 = experiment: as above; details: source organism: Brucella melitensis bv. 1 str. Rev.1
HLA-A*24:03 = experiment: IEDB peptide-MHC binding, purified MHC/direct/fluorescence; filed as Kd, often an IC50 or EC50 that approximates it; ≥ and ≤ were set here for values at or beyond the usual limits of such assays; details: source organism: Corynebacterium glutamicum
HLA-A*30:01 = experiment: as above
HLA-B*44:02 = experiment: as above; details: source organism: Giardia lamblia ATCC 50803
HLA-A*03:01 [17] = experiment: IEDB peptide-MHC binding, purified MHC/competitive/fluorescence; filed as Kd, often an IC50 or EC50 that approximates it; ≥ and ≤ were set here for values at or beyond the usual limits of such assays; details: source organism: Escherichia coli F11
HLA-B*15:42 = experiment: as above; details: source organism: Escherichia coli F11
HLA-A*31:01 [18] = experiment: as above; details: source organism: Escherichia coli F11
HLA-B*83:01 = experiment: as above; details: source organism: Escherichia coli F11
HLA-A*68:23 = experiment: as above; details: source organism: Escherichia coli F11
HLA-B*45:06 = experiment: as above; details: source organism: Escherichia coli F11
HLA-A*32:15 = experiment: as above; details: source organism: Escherichia coli F11
[19] = source organism: Camelpox virus M-96
[20] = source organism: Brucella suis ATCC 23445
[21] = source organism: Brucella abortus
[22] = source organism: Corynebacterium glutamicum
[23] = source organism: Giardia lamblia ATCC 50803

Sequence: IHIPGDTLF
IC50 (HLA-A*11:01 [1]): ≥ 152 µM | Kd (HLA-A*26:01; source organism: Variola virus): ≥ 20 µM | Kd (HLA-B*46:01; [19]): ≥ 20 µM | Kd (HLA-B*40:01; [19]): ≥ 20 µM | Kd (HLA-B*58:01; [19]): ≥ 20 µM | Kd (HLA-A*69:01 [2]; [19]): ≥ 20 µM | Kd (HLA-B*57:01 [3]): ≥ 20 µM | Kd (HLA-B*48:01; [19]): ≥ 20 µM | Kd (HLA-B*39:01): ≥ 20 µM | Kd (HLA-B*08:02): ≥ 20 µM | Kd (HLA-A*02:01; [19]): ≥ 20 µM | Kd (HLA-A*68:02): ≥ 20 µM | Kd (HLA-B*27:05; [19]): ≥ 20 µM | Kd (HLA-B*38:01; source organism: Variola virus): 0.392 µM | Kd (HLA-B*08:03): ≥ 20 µM | Kd (HLA-B*08:01; source organism: Variola virus): ≥ 20 µM | Kd (HLA-A*01:01 [4]): ≥ 20 µM | Kd (HLA-A*26:02): ≥ 20 µM | Kd (HLA-B*18:01 [5]): ≥ 20 µM | Kd (HLA-B*35:01): 0.366 µM | Kd (HLA-B*15:01 [6]): ≥ 20 µM | Kd (HLA-B*15:17; source organism: Vaccinia virus WR): ≥ 20 µM | Kd (HLA-B*07:02 [7]): ≥ 5 µM

Sequence: FSDVSHWWQ
Kd (HLA-A*26:01; [20]): ≥ 20 µM | Kd (HLA-B*15:09): ≥ 20 µM | Kd (HLA-B*46:01; [21]): ≥ 20 µM | Kd (HLA-B*40:01; [21]): ≥ 20 µM | Kd (HLA-A*03:01 [8]; [21]): ≥ 20 µM | Kd (HLA-A*01:01 [9]; [21]): 0.404 µM | Kd (HLA-A*31:01 [10]; [21]): ≥ 20 µM | Kd (HLA-B*58:01; [21]): 2.09 µM | Kd (HLA-B*18:01 [11]): ≥ 20 µM | Kd (HLA-B*48:01; [21]): ≥ 20 µM | Kd (HLA-A*02:01; [21]): ≥ 20 µM | Kd (HLA-B*15:01 [12]; [21]): ≥ 20 µM | Kd (HLA-B*07:02 [13]; [21]): ≥ 20 µM | Kd (HLA-B*27:05; [21]): ≥ 20 µM | Kd (HLA-B*38:01; [20]): ≥ 20 µM | Kd (HLA-A*11:01 [14]; [21]): ≥ 20 µM | Kd (HLA-B*08:01; [20]): ≥ 20 µM | Kd (HLA-A*69:01 [15]): ≥ 20 µM | Kd (HLA-B*57:01 [16]): ≥ 20 µM | Kd (HLA-A*02:06): ≥ 20 µM | Kd (HLA-B*15:17; source organism: Brucella melitensis bv. 1 str. Rev.1): ≥ 20 µM

Kd (HLA-A*26:01; [22]): ≥ 20 µM | Kd (HLA-B*40:01; [22]): ≥ 20 µM | Kd (HLA-A*03:01 [8]; [22]): ≥ 20 µM | Kd (HLA-A*01:01 [9]; [22]): ≥ 20 µM | Kd (HLA-A*31:01 [10]; [22]): ≥ 20 µM | Kd (HLA-B*58:01; [22]): ≥ 20 µM | Kd (HLA-A*69:01 [2]; [22]): ≥ 20 µM | Kd (HLA-A*24:03): ≥ 20 µM | Kd (HLA-A*30:01; [22]): 4.84 µM | Kd (HLA-A*02:01; [22]): ≥ 20 µM | Kd (HLA-B*15:01 [12]; [22]): ≥ 20 µM | Kd (HLA-B*27:05; [22]): ≥ 20 µM | Kd (HLA-A*11:01 [14]; [22]): ≥ 20 µM | Kd (HLA-B*08:01; [22]): ≥ 20 µM
Sequence: VHDREGNEV

Sequence: ASSWAPTQK
Kd (HLA-A*26:01; [23]): ≥ 20 µM | Kd (HLA-B*44:02): ≥ 20 µM | Kd (HLA-B*40:01; [23]): ≥ 20 µM | Kd (HLA-A*03:01 [8]; [23]): 0.51 µM | Kd (HLA-A*01:01 [9]; [23]): ≥ 20 µM | Kd (HLA-B*58:01; [23]): ≥ 20 µM | Kd (HLA-A*69:01 [2]; [23]): ≥ 20 µM | Kd (HLA-A*30:01; [23]): 4.14 µM | Kd (HLA-A*02:01; [23]): ≥ 20 µM | Kd (HLA-B*15:01 [12]; [23]): ≥ 20 µM | Kd (HLA-B*07:02 [13]; [23]): ≥ 20 µM | Kd (HLA-B*27:05; [23]): ≥ 20 µM | Kd (HLA-A*11:01 [14]; [23]): 0.0175 µM | Kd (HLA-B*08:01; [23]): ≥ 20 µM

Kd (HLA-A*03:01 [17]): 0.078 µM | Kd (HLA-B*15:42): ≥ 5 µM | Kd (HLA-A*31:01 [18]): 0.0183 µM | Kd (HLA-B*83:01): ≥ 5 µM | Kd (HLA-A*68:23): 0.0002 µM | Kd (HLA-B*45:06): ≥ 5 µM | Kd (HLA-A*32:15): 0.824 µM
Sequence: MTYSHHACR
